Some results are limits rather than exact numbers.

The record followed here is the Immune Epitope Database (IEDB).

Some targets named below: HLA-A*02:02; HLA-A*02:03; HLA-A*02:06; HLA-A*03:01; HLA-A*11:01; HLA-A*31:01; HLA-A*33:01; HLA-A*68:01.
Experiment in all cases: IEDB peptide-MHC binding, purified MHC/competitive/radioactivity; filed as Kd, often an IC50 or EC50 that approximates it; ≥ and ≤ were set here for values at or beyond the usual limits of such assays
[1] abbreviates: source organism: Vaccinia virus WR.
Setting [2] is: source organism: SARS coronavirus Tor2.
The mark [3] stands for this setting: source organism: Mammarenavirus guanaritoense.
[4] abbreviates: source organism: Mammarenavirus juninense.
The mark [5] stands for this setting: source organism: Mammarenavirus whitewaterense.
Setting [6] is: source organism: Mammarenavirus machupoense.
[7] abbreviates: source organism: Lassa virus Josiah.

Take QAKKPEVRI: the figures for the Kd in the test with HLA-A*02:02 (setting [1]), in the test with HLA-A*02:03 (setting [1]) and with HLA-A*02:06 (setting [1]) were 738 nM, 6570 nM and not below 41900 nM, respectively.
The corresponding values for VIVVPVIDRL are 4570 nM, not below 59000 nM and 11100 nM.
Regarding FLAFLLFLVL, the Kd was determined as 13.2 nM in the test with HLA-A*02:02 (setting [2]), 245 nM with HLA-A*02:03 (setting [2]) and 2000 nM in the test with HLA-A*02:06 (setting [2]).
For KVVGLYGNGV, the Kd in the test with HLA-A*02:06 (source organism: Dengue virus 2 Jamaica/1409/1983) worked out at 11.8 nM.
For the sequence HLENDKIEDL, the results for the Kd with HLA-A*02:02 (setting [1]), with HLA-A*02:03 (setting [1]) and with HLA-A*02:06 (setting [1]) were 526 nM, 414 nM and 10600 nM, respectively.
Taken in the same sequence, the figures for YIILFILFFA were 263 nM, 674 nM and 1050 nM.
The corresponding values for YLSKEDRIIT are 1300 nM, 5570 nM and not below 49000 nM.
Take DMICCDSRIV: the dissociation constant Kd is 11300 nM with HLA-A*02:02 (setting [1]), 6080 nM with HLA-A*02:03 (setting [1]) and 18900 nM with HLA-A*02:06 (setting [1]).
Turning to FMNDLQVSR, the Kd is 249 nM with HLA-A*02:02 (setting [3]), 914 nM with HLA-A*02:03 (setting [3]) and not below 33600 nM with HLA-A*02:06 (setting [3]).
Regarding DLNIFMTLV, the Kd in the test with HLA-A*02:02 (setting [1]) came out at 1910 nM; in the test with HLA-A*02:03 (setting [1]) it was 556 nM; in the test with HLA-A*02:06 (setting [1]) it was 2190 nM.
Take IASGQRCHFI: the Kd turned out to be 526 nM in the test with HLA-A*02:02 (setting [1]), 8320 nM with HLA-A*02:03 (setting [1]) and 256 nM with HLA-A*02:06 (setting [1]).
On to LNIALVAVSL, for which the Kd amounted to 179 nM with HLA-A*02:02 (setting [4]), 12400 nM with HLA-A*02:03 (setting [4]) and 13100 nM with HLA-A*02:06 (setting [4]).
Take ELAYYNSCML: the Kd in the test with HLA-A*02:02 (setting [1]) is 1870 nM; with HLA-A*02:03 (setting [1]) it was 151 nM; with HLA-A*02:06 (setting [1]), 3570 nM.
Take KTVAGSFAS: the Kd came to 1590 nM in the test with HLA-A*02:02 (setting [5]), 3810 nM in the test with HLA-A*02:03 (setting [5]) and 9130 nM with HLA-A*02:06 (setting [5]).
Regarding KLLYAAEMV, the results for the Kd in the test with HLA-A*02:02 (setting [1]), in the test with HLA-A*02:03 (setting [1]) and with HLA-A*02:06 (setting [1]) were 57.6 nM, 54.3 nM and 17.9 nM, respectively.
In the case of FLTNKLLLFA, the Kd with HLA-A*02:02 (setting [2]) was 0.417 nM; with HLA-A*02:03 (setting [2]) it was 1.41 nM; in the test with HLA-A*02:06 (setting [2]) it was 7.47 nM.
As for SSVSVLMKEH, the Kd in the test with HLA-A*03:01 (setting [6]) is 17700 nM; with HLA-A*11:01 (setting [6]), not below 31000 nM; in the test with HLA-A*31:01 (setting [6]) it was 11700 nM; with HLA-A*33:01 (setting [6]), not below 70000 nM; with HLA-A*68:01 (setting [6]), 8860 nM.
As to TLATGPVLTL, in the test with HLA-A*02:03 (source organism: Dengue virus 4 Philippines/H241/1956), the Kd came to 28.3 nM.
Turning to GLKSKTHAVL, the results for the Kd with HLA-A*02:03 (source organism: Homo sapiens) and with HLA-A*02:06 (source organism: Homo sapiens) were 1.05 nM and not below 69800 nM, respectively.
IFMRDWNSKY: the dissociation constant Kd was not below 33300 nM with HLA-A*03:01 (setting [1]); not below 20500 nM with HLA-A*11:01 (setting [1]); 2480 nM with HLA-A*31:01 (setting [1]); 13700 nM with HLA-A*33:01 (setting [1]); 10900 nM with HLA-A*68:01 (setting [1]).
As for SFYVYANGGR, the Kd in the test with HLA-A*03:01 (setting [2]) stood at 1650 nM; with HLA-A*11:01 (setting [2]) it was 1170 nM; with HLA-A*31:01 (setting [2]) it was 89.2 nM; in the test with HLA-A*33:01 (setting [2]) it was 182 nM; in the test with HLA-A*68:01 (setting [2]) it was 789 nM.
For TTGRTSLPK, the Kd with HLA-A*03:01 (setting [7]) was found to be 5240 nM; with HLA-A*11:01 (setting [7]) it was 1760 nM; in the test with HLA-A*31:01 (setting [7]), 18000 nM; with HLA-A*33:01 (setting [7]) it was 14500 nM; with HLA-A*68:01 (setting [7]), 13300 nM.
Turning to YSGLTPEQK, the Kd was 18800 nM with HLA-A*03:01 (setting [1]); 497 nM with HLA-A*11:01 (setting [1]); 16200 nM with HLA-A*31:01 (setting [1]); not below 53000 nM in the test with HLA-A*33:01 (setting [1]); 494 nM in the test with HLA-A*68:01 (setting [1]).
ELTTVFIKY: the Kd is 269 nM with HLA-A*03:01 (setting [1]); 6690 nM with HLA-A*11:01 (setting [1]); 1820 nM in the test with HLA-A*31:01 (setting [1]); 5450 nM in the test with HLA-A*33:01 (setting [1]); 855 nM with HLA-A*68:01 (setting [1]).
Taken in the same sequence, the figures for VIDKAKVMGR were 805 nM, 488 nM, 130 nM, 2650 nM and 334 nM.
With SFKDQSKYCH, the Kd is not below 70000 nM with HLA-A*03:01 (setting [5]); not below 69700 nM with HLA-A*11:01 (setting [5]); 1160 nM with HLA-A*31:01 (setting [5]); 8630 nM in the test with HLA-A*33:01 (setting [5]); not below 70100 nM with HLA-A*68:01 (setting [5]).
As to VFFTASLFLH, the Kd with HLA-A*03:01 (setting [4]) was 10400 nM; with HLA-A*11:01 (setting [4]), 10100 nM; in the test with HLA-A*31:01 (setting [4]), 318 nM; in the test with HLA-A*33:01 (setting [4]), 164 nM; in the test with HLA-A*68:01 (setting [4]), not below 22700 nM.
With GLCAHILLY, the Kd with HLA-A*03:01 (setting [1]) is 14 nM; in the test with HLA-A*11:01 (setting [1]), 37.5 nM; with HLA-A*31:01 (setting [1]), 18000 nM; in the test with HLA-A*33:01 (setting [1]) it was 8360 nM; with HLA-A*68:01 (setting [1]), 3200 nM.
Taken in the same sequence, the figures for YIYSEIKQGR were 1650 nM, 11600 nM, 16.5 nM, 853 nM and 6.39 nM.
